Assay results as given in patent publication US20250027068A1 (published 2025).

Biological target: pooled human IgG (human)
Assay: cell-based or functional assay
Also: test concentration or dose not given here.

Binder	Enzyme Activity Endpoint Assay (purified): Fab′2 [ng/µL]	Enzyme Activity Endpoint Assay (purified): Fc [ng/µL]	Enzyme Activity Endpoint Assay (purified): IgG [ng/µL]	Enzyme Activity Endpoint Assay (purified): scIgG [ng/µL]
PRT-212 (enzyme) MEVVEVWPYGQNPNGKTEILSQTEDSESLQRLRDIEDFQAEKKKEGVVYTKWLDGVDVKDHDFRKIVDGNIEYYATPLLNGRGFYDINKDFNQDSDKCAAAVAANMFHYWLDRNRDNVDRFLSQNPEKHGIIELPDGQLKLSDFLNTYESDDGYRDKSKLFDLISNNFNGPVWTDKLLDNYINGYAYNYKYGRTIEDPTKNTSKINFFKEVFNEKILTNIHSIRNQNEFSDKLSEALYTGKAIGLSYGPAGLRHSLGHIISVWGADLDEDGNVVAIYVTDSDDKKLTIGDERVGLKRYKVSTDDEGRLRLTAYEETDNTGGEIRGIWTLDTGKQAWADYFDKTEQTGTDQAEQLEHHHHHH	13	435	1270	599
PRT-213 (enzyme) MEVVEVWPYGQNPNGKTEILSQTEDSESLQRLRDIEDFQAEKKKEGVVYTKWLDGVTVKDHDFRKIVDGNIEYYATPLLNGRGWYDINKDFNRDSDKCAAAVAANMFHYWLDRNRDNVDRFLKQNPEKHGIIELPDGQLKLSDFLNTYESDNGYRDKSKLFDFISKNFNGPVWTDKLLDNYINGYGYNYKYGRTIEDPTKNTSKINFFKKVFNEKILTDIHSIRNQNEFSDLLSEALYTGKAIGLSYGPAGLRHSLGHIISVWGADFDEDGNVVAIYVTDSDDKKLTIGDERVGLKRYKVSTDDEGRARLTAYTETDNTGGQVRGLYTLDTGTQAWADYFDKTEQTGTDQAEQLEHHHHHH	0	244	1290	301
PRT-214 (enzyme) MEVVEVWPYGQNPNGKTEILSQTEDSESLQRLRDIEDFQAEKKKEGVVYTKWLDGVDVDDHDFRKITDGDIEYYATPLLNGRGFYDINKDFNRDSDKCAAAVAANMFHYWLDRNRDNVDRFLKQNPEKHGIIELPDGQLKLSDFLNTYESDYGYRDKSKLFDFISNNFNGPVWTDKLLDNYINGYAYNYKYGRTIEDPTKNTSKINFFKEVFDEKLLTNNHSIRNYNEFSELLREALYTGKAIGLSYGPAGLRHSLGHIISVWGADLDEDGNVVAIYVTDSDDKKLTIGDERVGLKRYKVSSDDENRARLTAYEEKDNTGGEIRGLYTLDTGKQAWADYFDKTEQTGTDQAEQLEHHHHHH	467	27	1650	0
PRT-215 (enzyme) MEVVEVWPYGQNPNGKTEILSQTEDSESLQRLRDIEDFQAEKKKEGVVYTKWLDGVTVKDHDFRKIVDGNIEYYATPLLNGRGWYDINKDFNRDSDKCAAAVAANMFHYWLDRNRDNVDRFLKQNPEKHGIIELPDGQLKLSDFLNTYESDNGYRDKSKLFDFISKNFNGPVWTDKLLDNYINGYGYNYKYGRTIEDPTKNTSKINFFKKVFNEKILTDIHSIRNQNEFSDLLSEALYTGKAIGLSYGPAGLRHSLGHIISVWGADFDEDGNVVAIYVTDSDDKKLTIGDERVGLKRYKVSTDDEGRARLTAYTETDNTGGQVRGLWTLDTGTQAWADYFDKTEQTGTDQAEQLEHHHHHH	73	310	708	309
PRT-216 (enzyme) MEVVEVWPYGQNPNGKTEILSQTEDSESLQRLRDIEDFQAEKKKENVVYTKWLDGVDVDDHDFRKIVDGNTEYYATPLLNGRGWYDINKDFNRDSDKCAAAVAANMFHYWLDQNRDNIDRFLRQSPEKHGIIELPDGQLKLSDFLNTYESDDGYRDKSKLFDFISNNFNGPVWTDKLLDNYINGYGYNYKYGRTIEDPTKNNSKINFFKKVFNGKILTDNHSIRNYNTFSDLLSEALYTGKAIGLSYGPAGLRHSLGHIISVWGADLDADGNVVAIYVTDSDDKKLTIGDERVGLKRYKISYDDENRARLTAYEENDNTGGQIRGLETLDTGKQAWADYFDKTEQTGTDQAEQLEHHHHHH	0	0	1660	0
